Experimental data as given in patent publication US20260356928 (published 2026).

Biological target: CRMP1 (human, UniProt Q14194)
Test: ELISA

B1: NI-504.3E7 (antibody, V domains shown)
VH: EVQLVETGGGFVQPGGSLQLSCAVSGFPYSGTSFHWVRQVSGKGLEWIGRIRSKSDNYETSYTESLKGRFIVSRDDSKNMVRLHLYSLRTEDTALYYCTTGIIVVDTSYLDHWGRGTLVTVSS
VL: SYELTQPPSASVSPGQTARITCSGAALPKKYAYWYQLKSGQAPVLVIYEDTKRPSGIPERFSGSSSGTLATLTINGALVEDEADYYCYSTDSSGDVWVFGGGTKLTVL
With B1 the EC50 was 69 nM.
